Test results taken from article PMC11524583, “Neurons enhance blood–brain barrier function via upregulating claudin-5 and VE-cadherin expression due to glial cell line-derived neurotrophic factor secretion” (eLife, 2024).
Where “and” joins values, the source holds several entries; their conditions need not be identical. Equal entries are not always repeated.

Columns and labels:
[1] = tested on: p-AKT/AKT; assay: Western blot of p-AKT/AKT in hCMEC/D3 cells; type: cell-based, Homo sapiens
Experimental: (§1) Whole-cell and tissue lysates, nucleoprotein, and cytoplasmic protein were prepared using RIPA Lysis Buffer (Beyotime, Shanghai, China) as the described method ([Wu et al., 2021]). Proteins were separated through sodium dodecyl sulfate–polyacrylamide gel electrophoresis and transferred onto nitrocellulose or polyvinylidene difluoride membranes. The membranes were blocked with 5% skim milk and incubated with corresponding primary antibodies at 4°C overnight. After being washed with Tris-buffered saline Tween buffer, the membranes were incubated with secondary antibodies (Cell Signaling Technology, MA, USA) at 1:3000 dilution: Anti-mouse IgG, HRP-linked Antibody (#7076), Anti-rabbit IgG, HRP-linked Antibody (#7074). Protein levels were visualized using a highly sensitive ECL western blotting substrate and a gel imaging system (Tanon Science & Technology, Shanghai, China).
(§2) Exogenous and endogenous GDNF in the medium was neutralized with anti-GDNF antibody (#AF-212-NA, R&D system, Minneapolis, MN, USA). 0.25, 0.5, and 1.0 μg/ml anti-GDNF antibody was added into the US-CM or medium containing 200 pg/ml GDNF, and then the medium was preincubated at 4°C for 1 hr. The hCMEC/D3 cells were incubated with 200 pg/ml GDNF or US-CM containing anti-GDNF antibody or not for 6 days, and then cell lysate was collected for western blot. The medium was replaced every 24 hr.

[2] = tested on: ETS1; assay: Western blot of total and nuclear ETS1 in hCMEC/D3 cells; type: cell-based, Homo sapiens; conditions: for ETS1/β-actin Relative Expression, Mean / ETS1/Lamin B Relative Expression, Mean: group mean; for ETS1/β-actin Relative Expression / ETS1/Lamin B Relative Expression: individual replicates
Experimental: as §1
Here, hCMEC/D3 cells were plated in the plates or culture dishes at 6 × 10^4 cells/cm^2 and transfected with 10 nM of negative control or human FOXO1, ETS1, and CDH5 siRNA (Tsingke Biotechnology, Beijing, China) for 12 hr using Lipofectamine 3000 (Invitrogen, Carlsbad, CA, USA) reagent according to the manufacturer’s instructions. Cells were then incubated with a medium containing GDNF for 72 hr.

[3] = tested on: VE-cadherin; assay: Western blot of VE-cadherin in primary rat brain microvascular endothelial cells; type: cell-based; conditions: primary rat BMECs, 200 pg/ml GDNF or US-CM
Experimental: Then, hCMEC/D3, U251, and SH-SY5Y cells were cultured in DMEM/F12 containing 10% FBS, 62.5 µg/ml penicillin and 100 µg/ml streptomycin. Cell viability was assessed using a CCK-8 kit (Beyotime Biotechnology, Shanghai, China), and the results were expressed as the fold of control.
as §1

[4] = tested on: claudin-5; assay: Western blot of claudin-5 expression in hCMEC/D3 cells; type: cell-based, Homo sapiens
Summary of the method: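 hCMEC/D3 cells were cultured in U251/SH-SY5Y co-culture conditioned medium or 200 pg/ml GDNF, with or without 0.25–1.0 μg/ml anti-GDNF antibody, for 6 days; alternatively, after 10 nM siRNA or FOXO1 plasmid transfection, cells received GDNF medium for 72 hr. RIPA lysates were analysed by SDS-PAGE immunoblot with ECL detection.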

[5] = tested on: p-ERK/ERK; assay: Western blot of p-ERK/ERK in hCMEC/D3 cells; type: cell-based, Homo sapiens
Experimental: as §1, §2

[6] = tested on: hCMEC/D3 mono-culture BBB model; assay: TEER of hCMEC/D3 mono-culture BBB model; type: cell-based, Homo sapiens; conditions: for TEER: individual replicates
[7] = tested on: p-JNK/JNK; assay: Western blot of p-JNK/JNK in hCMEC/D3 cells; type: cell-based, Homo sapiens
Experimental: as §1

[8] = hCMEC/D3 cells, 200 pg/ml GDNF or US-CM
[9] = mean of 4, relative to Con, GDNF alone, Figure 3E
[10] = relative to Con (mean 1.000), mean of 4, Figure 3A
[11] = relative to Con (mean 1.000), single replicates, Figure 3A
[12] = single replicate, relative to Con, GDNF alone, Figure 3E
[13] = relative to Con (mean 1.000), mean of 4, Figure 3B
[14] = relative to Con (mean 1.000), mean of 4, Figure 3C
[15] = relative to Con (mean 1.000), single replicates, Figure 3B
[16] = relative to Con (mean 1.000), single replicates, Figure 3C

B1: GDNF: glial cell line-derived neurotrophic factor, recombinant protein (R&D system) (protein, UniProt P39905 78-211, looked up)
Glial cell line-derived …: SPDKQMAVLPRRERNRQAAAANPENSRGKGRRGQRGKNRGCVLTAIHLNVTDLGLGYETKEELIFRYCSGSCDAAETTYDKILKNLSRNRRLVSDKVGQACCRPIAFDDDLSFLDDNLVYHILRKHSAKRCGCI
phosphorylation of AKT (p-AKT) [1, 8]: accompanied by the phosphorylation
p-AKT/AKT Relative Expression, Mean [1, 9]: 1.284
p-AKT/AKT Relative Expression, Mean [1, 10]: 1.345
p-AKT/AKT Relative Expression [1, 11]: 1.311 and 1.24 and 1.38 and 1.4488
p-AKT/AKT Relative Expression [1, 12]: 1.359 and 1.208 and 1.388 and 1.180
ETS1/β-actin Relative Expression, Mean ([2]; Figure 5A, Con = 1.000): 1.877
ETS1/β-actin Relative Expression ([2]; Figure 5A, relative to Con): 1.777 and 1.712 and 2.125 and 1.893
ETS1/Lamin B Relative Expression, Mean ([2]; Figure 5B, Con = 1.000): 1.560
ETS1/Lamin B Relative Expression ([2]; Figure 5B, relative to Con): 1.659 and 1.595 and 1.316 and 1.670
ETS1/β-actin Relative Expression, Mean ([2]; Figure 5C, Con = 1.000, GDNF group of LY and U0 inhibitor experiment): 1.287
ETS1/β-actin Relative Expression ([2]; Figure 5C, relative to Con, GDNF group of LY and U0 inhibitor experiment): 1.182 and 1.224 and 1.389 and 1.354
ETS1/Lamin B Relative Expression, Mean ([2]; Figure 5D, Con = 1.000): 2.084
ETS1/Lamin B Relative Expression ([2]; Figure 5D, relative to Con): 1.875 and 2.209 and 2.073 and 2.180
ETS1/β-actin Relative Expression, Mean ([2]; Figure 5E, NC = 1.000): 1.499
ETS1/β-actin Relative Expression ([2]; Figure 5E, relative to NC): 1.466 and 1.523 and 1.519 and 1.490
ETS1/Lamin B Relative Expression, Mean ([2]; Figure 5F, NC = 1.000): 1.528
ETS1/Lamin B Relative Expression ([2]; Figure 5F, relative to NC): 1.629 and 1.498 and 1.595 and 1.392
nuclear ETS1 expression ([2]; hCMEC/D3 cells, US-CM or GDNF): significantly increased
total ETS1 expression ([2]; hCMEC/D3 cells, US-CM or GDNF): significantly increased
VE-cadherin/β-actin Relative Expression, Mean ([3]; Con = 1.000 (Figure 2J)): 1.773
VE-cadherin/β-actin Relative Expression ([3]; relative to Con, single replicate (Figure 2J)): 2.095 and 1.692 and 1.731 and 1.576
Claudin-5/β-actin Relative Expression, Mean ([4]; 50pg, Figure 2D, Con = 1.000): 1.434
Claudin-5/β-actin Relative Expression ([4]; 50pg, Figure 2D, relative to Con, single replicates): 1.162 and 1.622 and 1.551 and 1.402
Claudin-5/β-actin Relative Expression, Mean ([4]; 100pg, Figure 2D, Con = 1.000): 1.645
Claudin-5/β-actin Relative Expression ([4]; 100pg, Figure 2D, relative to Con, single replicates): 1.855 and 1.384 and 1.893 and 1.449
Claudin-5/β-actin Relative Expression, Mean ([4]; 200pg, Figure 2D, Con = 1.000): 2.035
Claudin-5/β-actin Relative Expression ([4]; 200pg, Figure 2D, relative to Con, single replicates): 2.027 and 2.014 and 1.765 and 2.333
Claudin-5/β-actin Mean ([4]; Figure 2I, hCMEC/D3 cells, group mean, relative to Con): 1.520
Claudin-5/β-actin Relative Expression ([4]; Figure 2I, hCMEC/D3 cells, individual replicates, relative to Con): 1.748 and 1.509 and 1.594 and 1.229
Claudin-5/β-actin Mean ([4]; Figure 2K, hCMEC/D3 cells, group mean, relative to Con): 1.490
Claudin-5/β-actin Relative Expression ([4]; Figure 2K, hCMEC/D3 cells, individual replicates, relative to Con): 1.399 and 1.426 and 1.661 and 1.475
Claudin-5/β-actin Relative Expression, Mean ([4]; Figure 5G, hCMEC/D3 cells, group mean, NC = 1.000): 1.393
Claudin-5/β-actin Relative Expression ([4]; Figure 5G, hCMEC/D3 cells, single replicates, relative to NC group): 1.279 and 1.343 and 1.470 and 1.479
claudin-5 expression ([4]; hCMEC/D3 cells incubated with conditioned medium or neurotrophic factor vs normal medium): induced the expression of claudin-5 and VE-cadherin in a concentration-dependent manner
Claudin-5/β-actin Relative Expression, Mean [4, 10]: 1.789
Claudin-5/β-actin Relative Expression, Mean [4, 13]: 1.788
Claudin-5/β-actin Relative Expression, Mean [4, 14]: 2.325
Claudin-5/β-actin Relative Expression, Mean ([4]; relative to Con (mean 1.000), mean of 4, Figure 3D): 1.421
Claudin-5/β-actin Relative Expression [4, 11]: 1.761 and 1.657 and 1.692 and 2.046
Claudin-5/β-actin Relative Expression [4, 15]: 1.594 and 2.146 and 1.495 and 1.917
Claudin-5/β-actin Relative Expression [4, 16]: 2.223 and 2.345 and 2.874 and 1.857
Claudin-5/β-actin Relative Expression ([4]; relative to Con (mean 1.000), single replicates, Figure 3D): 1.649 and 1.456 and 1.174 and 1.405
phosphorylation of ERK (p-ERK) [5, 8]: accompanied by the phosphorylation
p-ERK/ERK Relative Expression, Mean [5, 9]: 1.352
p-ERK/ERK Relative Expression, Mean [5, 13]: 1.377
p-ERK/ERK Relative Expression [5, 15]: 1.512 and 1.333 and 1.310 and 1.351
p-ERK/ERK Relative Expression [5, 12]: 1.315 and 1.511 and 1.307 and 1.277
TEER ([6]; Figure 2M, Day3): 61.71 Ω·cm2 and 62.7 Ω·cm2 and 62.37 Ω·cm2
TEER ([6]; Figure 2M, Day4): 64.35 Ω·cm2 and 63.69 Ω·cm2 and 66 Ω·cm2 and 65.34 Ω·cm2
TEER ([6]; Figure 2M, Day5): 68.31 Ω·cm2 and 66.99 Ω·cm2 and 67.65 Ω·cm2 and 67.32 Ω·cm2
TEER ([6]; Figure 2M, Day6): 69.3 Ω·cm2 and 67.32 Ω·cm2 and 68.64 Ω·cm2 and 66.99 Ω·cm2
TEER ([6]; Figure 2O, Day3): 71.61 Ω·cm2 and 69.3 Ω·cm2 and 68.64 Ω·cm2 and 69.63 Ω·cm2
TEER ([6]; Figure 2O, Day4): 74.25 Ω·cm2 and 76.23 Ω·cm2 and 72.27 Ω·cm2 and 74.91 Ω·cm2
TEER ([6]; Figure 2O, Day5): 77.22 Ω·cm2 and 72.93 Ω·cm2 and 74.58 Ω·cm2 and 77.55 Ω·cm2
TEER ([6]; Figure 2O, Day6): 76.23 Ω·cm2 and 73.92 Ω·cm2 and 76.56 Ω·cm2
TEER values ([6]; hCMEC/D3 mono-culture, 200 pg/ml GDNF, day 6): significantly increased
phosphorylation of JNK ([7]; hCMEC/D3 cells, 200 pg/ml GDNF): did not stimulate
p-JNK/JNK Relative Expression Mean [7, 14]: 1.172
p-JNK/JNK Relative Expression [7, 16]: 1.036 and 1.122 and 1.219 and 1.311
